Measured values as given in patent US20150337031A1 (CELYAD S A, published 2015).

Key:
[1] = molecular target: T1, 13 amino acid sequence from human MEF2C (SEQ ID NO: 2), GNPNLLPLAHPSL (human); assay: SPR, BIAcore T200, antibody coupled to CM5 chip, peptide injected, 1:1 model
T1 construct: Synthetic peptide (GenScript); Coated on the plate in ELISA, injected over the immobilised antibody in Biacore; also called wild-type peptide; antigen peptide
T1 peptide: GNPNLLPLAHPSL
Experimental: (§1) Affinity of the antibody for the peptide was measured by using BIAcoreT200. After covalent coupling of the antibody onto the Series S Sensor Chip CM5, different concentrations (0.078, 0.781, 1.563, 3.125 and 6.250 μM) of peptide were injected serially over the antibody and blank flow cell at a flow rate of 30 μl/min. Association and dissociation phases were monitored for 30 and 150 seconds, respectively. Peptide with the concentration of 6.250 μM was set as repetition. The antibody surface was regenerated with 10 mM Glycine-HCl, pH2.0, 30 s injections 1 time.
(§2) About 10000 RU of antibody was immobilized on the sensor chip via primary amine groups. Binding data was processed, double referenced with response from blank injections, and fit to a 1:1 interaction model using the BIAcore T200 evaluation software.

[2] = molecular target: T2, Mutated peptide on Aa L (6th position); assay: ELISA on coated mutant peptide, relative quantification against a standard curve of the wild-type peptide
T2 peptide: GNPNLAPLAHPSL
Experimental: (§3) ELISA was performed to map the epitope of the test antibody. The peptides were coated in 96-well microtiter plates at 4° C. for 16 h. The plates were then blocked with 5% MPBS at 37° C. for 2 h. After washed with PBS-T, 100 μl target/control antibody (0.5 μg/ml) was added and incubated at 37° C. for 2 h. The plates were washed with PBS-T and incubated with 100 μl of 0.1 μg/ml goat anti-mouse IgG (H+L) at 37° C. for 1 h. The plates were washed with PBS-T and incubated with rabbit anti goat IgG (H+L) [HRP] at 37° C. for 1 h. After washing the plate with PBS-T, the color was developed with 100 μl TMB substrate for 10 minutes. The reaction was stopped by adding 100 μl of 1 M HCl and the absorbance was measured at 450 nm using a spectrometer. […] A non-coated well was set as blank control and the peptide library incubated with the detection antibodies only was set as the negative control.
(§4) In addition to the alanine scanning, a relative quantification of binding was performed. Each of the mutated peptides was assayed in direct ELISA according to the procedures described above and compared to a standard curve performed with the wild-type peptide. Relative binding quantification was then performed as described previously. […] Therefore, considering the combination of the data obtained in FIGS. 7 and 8 an epitope target of the anti-MEF2C mAb is the following amino acid sequence: […]

[3] = molecular target: T3, Mutated peptide on Aa L (8th position); assay: as above
T3 peptide: GNPNLLPAAHPSL
Experimental: as §3, §4

[4] = molecular target: T4, alanine scanning mutant of the MEF2C peptide of SEQ ID NO: 2, leucine at position 5 replaced by alanine (human); assay: direct ELISA, relative quantification against a wild-type peptide standard curve (FIG. 8)
T4 construct: Member of the alanine scanning peptide library; also called mutation at peptide position 5
T4 peptide: GNPNALPLAHPSL
Experimental: as §3, §4

[5] = molecular target: T5, alanine scanning mutant of the MEF2C peptide of SEQ ID NO: 2, proline at position 7 replaced by alanine (human); assay: as above
T5 construct: Member of the alanine scanning peptide library; also called mutation of the seventh residue; P7
T5 peptide: GNPNLLALAHPSL
Experimental: as §3, §4

[6] = molecular target: T6, alanine scanning mutant of the MEF2C peptide of SEQ ID NO: 2, proline at position 3 replaced by alanine (human); assay: as above
T6 construct: Member of the alanine scanning peptide library; also called mutation at peptide position 3
T6 peptide: GNANLLPLAHPSL
Experimental: as §3, §4

[7] = molecular target: T7, alanine scanning mutant of the MEF2C peptide of SEQ ID NO: 2, asparagine at position 4 replaced by alanine (human); assay: as above
T7 construct: Member of the alanine scanning peptide library; also called mutation at peptide position 4
T7 peptide: GNPALLPLAHPSL
Experimental: as §3, §4

[8] = molecular target: T8, alanine scanning mutant of the MEF2C peptide of SEQ ID NO: 2, glycine at position 1 replaced by alanine (human); assay: as above
T8 construct: Member of the alanine scanning peptide library synthesised by GenScript; also called mutation of the first residue; G1
T8 peptide: ANPNLLPLAHPSL
Experimental: as §3, §4

[9] = molecular target: T9, alanine scanning mutant of the MEF2C peptide of SEQ ID NO: 2, asparagine at position 2 replaced by alanine (human); assay: as above
T9 construct: Member of the alanine scanning peptide library; also called mutation at peptide position 2
T9 peptide: GAPNLLPLAHPSL
Experimental: as §3, §4

[10] = molecular target: T1, 13 amino acid sequence from human MEF2C …; assay: SPR, BIAcore T200, calculated as the inverse of Kd
Experimental: as §1, §2

[11] = molecular target: T4, alanine scanning mutant of the MEF2C …; assay: indirect ELISA on coated alanine mutant peptides (FIG. 7)
Experimental: as §3
(§5) Thirteen mutant peptides were numbered in numerical order and their binding activity with target/control antibodies were determined by indirect ELISA. The non-specific binding between the peptide, the target antibody and rabbit anti-goat IgG [HRP] was determined. The non-specific binding between the peptide, goat anti-mouse IgG and rabbit anti-goat IgG [HRP] was determined as well.

[12] = molecular target: T6, alanine scanning mutant of the MEF2C …; assay: as above
Experimental: as §3, §5

[13] = molecular target: T7, alanine scanning mutant of the MEF2C …; assay: as above
Experimental: as §3, §5

[14] = molecular target: T9, alanine scanning mutant of the MEF2C …; assay: as above
Experimental: as §3, §5

[15] = molecular target: T10, Mutated peptide on Aa P (11th position); assay: indirect ELISA on coated peptide, antibody at 0.5 µg/ml, OD450
T10 peptide: GNPNLLPLAHASL
Experimental: as §3, §5

[16] = molecular target: T11, Mutated peptide on Aa L (13th position); assay: as above
T11 peptide: GNPNLLPLAHPSA
Experimental: as §3, §5

[17] = molecular target: T12, Mutated peptide on Aa H (10th position); assay: as above
T12 peptide: GNPNLLPLAAPSL
Experimental: as §3, §5

B1: anti-MEF2C monoclonal antibody produced by the hybridoma cell line deposited with BCCM/LMBP under Accession No. LMBP 9949CB (antibody, V domains shown)
VH: EVQLQQSGPELVKPGASVKISCKASAYSFTGYFMNWVKQSHGKSLEWIGRINPYNGNTFYNQNFKGKATLTVDRSSSTAHMQILSLTSEDSTVYYCGREGATGAMDYWGQGTSVTVLP
VL: DVVMTQTPLSLPVSLGDQASISCRSSQSLVHSNGDTYLHWYLQMPGQSPRLLIYKVSNRFSGVPDRFSGSGSGTDFTLKISRVEAEDLGVYFCSQSTHVPPTFGGGTKLEIK
notes: IgG from a mouse hybridoma (detected with anti-mouse IgG); also called anti-MEF2C mAb; α MEF2C
- Kd [1]: 157 nM
- koff [1]: 0.00367 s⁻¹
- kon [1]: 23400 M⁻¹ s⁻¹
- binding result [2]: binds
- binding result [3]: binds
- decrease of the binding relative to the wild-type peptide [4]: > 99%
- loss of binding relative to the wild-type peptide [5]: 96.4%
- decrease of the binding relative to the wild-type peptide [6]: > 99%
- decrease of the binding relative to the wild-type peptide [7]: > 99%
- loss of binding relative to the wild-type peptide [8]: 92.9%
- decrease of the binding relative to the wild-type peptide [9]: > 99%
- Ka [10]: 6.37e+06 M⁻¹
- binding result [11]: no binding (tested: 0.5 µg/ml antibody)
- binding result [12]: no binding (tested: 0.5 µg/ml antibody)
- binding result [13]: no binding (tested: 0.5 µg/ml antibody)
- binding result [14]: no binding (tested: 0.5 µg/ml antibody)
- binding result [15]: binds
- binding result [16]: binds
- binding result [17]: binds
